Measurements from US20170298096A1 (CANIMGUIDE THERAPEUTICS, published 2017).
No end group written: not given here.

T1: His-tagged P3028 (human, also: His-tag, terminus and sequence not given here)
T1 construct: in solution at 0.5 ug/mL over the peptide cards; found with anti-His-tag antibody and rabbit anti-mouse peroxidase (rampo); also called PGE73; not shown: His-tag
T1 peptide: VFDEFKPLVEEPQNLIK


Biological target: T1, His-tagged P3028
Assay: PEPSCAN chip ELISA, His-P3028 in solution;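 note: score is the raw OD at 405 nm from peroxidase colour with ABTS, imaged by CCD camera before and after staining, with wells showing air bubbles set to zero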
Method: After washing, the peroxidase substrate 2,2′-azine-di-3-ethylbenzthiazoline sulfonate (ABTS) and 2 μL of 3% H2O2 were added. The binding capacity of the mAb was measured as a color development at 405 nm (optical density, OD405). The color development was quantified with a charge-coupled device (CCD)—camera and an image processing system.
The OD405-values obtained by a CCD-camera was considered as raw data values (“rampo values,” “rampo units,” or “rampo scores”). […] First the CCD-camera made a picture of the card before peroxidase coloring and then again a picture after the peroxidase coloring. […] These values were copied into an excel file and labeled as a raw data file. One follow-up manipulation was allowed. Sometimes a well can contain an air-bubble resulting in a false-positive value. If manual inspection of the cards detect an air-bubble the value are set to 0 for that well.

Binder | RAMPO Score [rampo score]
KKLDTFFVKLSLFTPR [SEQ ID NO 439] | 351
KKLDTFYVKLSLFTER [SEQ ID NO 463] | 334
KKLDTFFVKLILFTER [SEQ ID NO 505] | 289
KKLDTFFVSLSLFTER [SEQ ID NO 511] | 274
KKLDTFFVHLSLFTER [SEQ ID NO 488] | 306
KKLDTFDVKLSLFTER [SEQ ID NO 492] | 301
KKLDTFFVKWSLFTER [SEQ ID NO 482] | 316
KKLHTFFVKLSLFTER [SEQ ID NO 479] | 317
KVLDTFFVKLSLFTER [SEQ ID NO 481] | 317
KKLDDFFVKLSLFTER [SEQ ID NO 500] | 295
KKLDTCFVKLSLFTER [SEQ ID NO 462] | 335
FKLDTFFVKLSLFTER [SEQ ID NO 465] | 332
KKLDTFFVKLSLFAER [SEQ ID NO 489] | 305
KELDTFFVKLSLFTER [SEQ ID NO 441] | 349
KKLDTKFVKLSLFTER [SEQ ID NO 460] | 337
KCLDTFFVKLSLFTER [SEQ ID NO 499] | 295
KWLDTFFVKLSLFTER [SEQ ID NO 490] | 304
KQLDTFFVKLSLFTER [SEQ ID NO 440] | 350
KKLDTFFVKLWLFTER [SEQ ID NO 472] | 324
KILDTFFVKLSLFTER [SEQ ID NO 467] | 331
KKLDTFFVKLSLFQER [SEQ ID NO 493] | 301
KKLDLFFVKLSLFTER [SEQ ID NO 484] | 311
KKLDTFFTKLSLFTER [SEQ ID NO 496] | 298
KKLDTWFVKLSLFTER [SEQ ID NO 444] | 348

Binder | RAMPO Score [rampo score]
KALDTFFVKLSLFTER [SEQ ID NO 485] | 309
KKLDTFFVKLCLFTER [SEQ ID NO 457] | 341
KKLRTFFVKLSLFTER [SEQ ID NO 480] | 317
KKLNTFFVKLSLFTER [SEQ ID NO 498] | 296
KKLDAFFVKLSLFTER [SEQ ID NO 447] | 346
KKLDTFFVKLSLFTKR [SEQ ID NO 471] | 324
WKLDTFFVKLSLFTER [SEQ ID NO 507] | 284
KKLDTFFVKLSLYTER [SEQ ID NO 503] | 291
KDLDTFFVKLSLFTER [SEQ ID NO 461] | 335
KKLCTFFVKLSLFTER [SEQ ID NO 449] | 344
KSLDTFFVKLSLFTER [SEQ ID NO 510] | 281
KKLDTRFVKLSLFTER [SEQ ID NO 486] | 309
KKLKTFFVKLSLFTER [SEQ ID NO 512] | 274
YKLDTFFVKLSLFTER [SEQ ID NO 483] | 315
KKLDTFFVQLSLFTER [SEQ ID NO 469] | 330
KKLDTFFVKKSLFTER [SEQ ID NO 506] | 285
KKLDTFNVKLSLFTER [SEQ ID NO 443] | 348
KKLDTFFVKHSLFTER [SEQ ID NO 502] | 293
KKLDTFFVTLSLFTER [SEQ ID NO 445] | 347
KKYDTFFVKLSLFTER [SEQ ID NO 452] | 344
KKLDTFFVKLSCFTER [SEQ ID NO 455] | 342
KKLQTFFVKLSLFTER [SEQ ID NO 448] | 345
KKLDTFFVKLSLFTQR [SEQ ID NO 450] | 344
KKLDTHFVKLSLFTER [SEQ ID NO 466] | 332

Binder | RAMPO Score [rampo score]
KKLDTFFVKLRLFTER [SEQ ID NO 464] | 333
KKWDTFFVKLSLFTER [SEQ ID NO 458] | 341
KKLDEFFVKLSLFTER [SEQ ID NO 456] | 341
KKLDTFFVKLSYFTER [SEQ ID NO 475] | 320
KKLDTGFVKLSLFTER [SEQ ID NO 446] | 347
KKLDTFFVKLPLFTER [SEQ ID NO 470] | 328
KKLDTFFAKLSLFTER [SEQ ID NO 495] | 299
KKLDTFFVKLKLFTER [SEQ ID NO 473] | 323
KKLDTFFVKLALFTER [SEQ ID NO 477] | 318
KLLDTFFVKLSLFTER [SEQ ID NO 454] | 343
KKLDIFFVKLSLFTER [SEQ ID NO 501] | 293
KKLLTFFVKLSLFTER [SEQ ID NO 491] | 303
KKLDTFFVKLSPFTER [SEQ ID NO 497] | 297
SKLDTFFVKLSLFTER [SEQ ID NO 453] | 344
KKLSTFFVKLSLFTER [SEQ ID NO 451] | 344
KKLDTFFVMLSLFTER [SEQ ID NO 509] | 283
KKLDTFFVKLSLFTHR [SEQ ID NO 478] | 318
KTLDTFFVKLSLFTER [SEQ ID NO 468] | 331
KKLDFFFVKLSLFTER [SEQ ID NO 504] | 290
KKLDTFFVKLSLFTYR [SEQ ID NO 459] | 340
KKLDTFFVKLDLFTER [SEQ ID NO 474] | 322
KKLDTFFVKCSLFTER [SEQ ID NO 508] | 283
KYLDTFFVKLSLFTER [SEQ ID NO 494] | 301
